Test results published in patent US5710252.

Biological target: FLAG epitope Trypsin site N-terminally tagged 9 repeat GG biopolymer (SEQ ID NO:20)

Question: Which completeness of the Trypsin cleavage reaction, by relative mobility on SDS gels does the source give for Trypsin (type XI DPCC treated) (enzyme) here?
Answer: 100%
